Where a chain is given by its changes, count along the chain named. Names may count otherwise.
T1: human IL-2Rβ (human, UniProt P14784 27-240, limits assumed)
T1 construct: also called hIL-2Rβ; IL-2 receptor beta
T1 sequence (looked up): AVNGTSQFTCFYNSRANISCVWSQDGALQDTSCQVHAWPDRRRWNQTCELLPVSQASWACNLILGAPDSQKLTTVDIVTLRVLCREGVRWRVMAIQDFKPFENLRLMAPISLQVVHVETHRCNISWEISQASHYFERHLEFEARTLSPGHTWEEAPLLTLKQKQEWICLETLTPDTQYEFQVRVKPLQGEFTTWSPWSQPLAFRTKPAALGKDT

B1: hIL-15 V49R/D30A (ligand)
chain: NWVNVISDLKKIEDLIQSMHIDATLYTESAVHPSCKVTAMKCFLLELQRISLESGDASIHDTVENLIILANNSLSSNGNVTESGCKECEELEEKNIKEFLQSFVHIVQMFINTGGGGSGHHHHHHHHGGGLNDIFEAQKIEWHE
B2: hIL-15 V49R/D30E (ligand)
chain: B1 chain with A30E
B3: hIL-15 V49R/D30F (ligand)
chain: B1 chain with A30F
B4: hIL-15 V49R/D30H (ligand)
chain: B1 chain with A30H
B5: hIL-15 V49R/D30I (ligand)
chain: B1 chain with A30I
B6: hIL-15 V49R/D30K (ligand)
chain: B1 chain with A30K
B7: hIL-15 V49R/D30L (ligand)
chain: B1 chain with A30L
B8: hIL-15 V49R/D30M (ligand)
chain: B1 chain with A30M
B9: hIL-15 V49R/D30N (ligand)
chain: B1 chain with A30N
B10: hIL-15 V49R/D30Q (ligand)
chain: B1 chain with A30Q
B11: hIL-15 V49R/D30R (ligand)
chain: B1 chain with A30R
B12: hIL-15 V49R/D30S (ligand)
chain: B1 chain with A30S
B13: hIL-15 V49R/D30T (ligand)
chain: B1 chain with A30T
B14: hIL-15 V49R/D30V (ligand)
chain: B1 chain with A30V
B15: hIL-15 V49R/D30W (ligand)
chain: B1 chain with A30W
B16: hIL-15 V49R/D30Y (ligand)
chain: B1 chain with A30Y
B17: hIL-15 V49R/D61A (ligand)
chain: B1 chain with A30D, D61A
B18: hIL-15 V49R/E64A (ligand)
chain: B1 chain with A30D, E64A
B19: hIL-15 V49R/E64D (ligand)
chain: B1 chain with A30D, E64D
B20: hIL-15 V49R/E64H (ligand)
chain: B1 chain with A30D, E64H
B21: hIL-15 V49R/E64N (ligand)
chain: B1 chain with A30D, E64N
B22: hIL-15 V49R/E64Q (ligand)
chain: B1 chain with A30D, E64Q
B23: hIL-15 V49R/E64T (ligand)
chain: B1 chain with A30D, E64T
B24: hIL-15 V49R/H32A (ligand)
chain: B1 chain with A30D, H32A
B25: hIL-15 V49R/H32D (ligand)
chain: B1 chain with A30D, H32D
B26: hIL-15 V49R/H32E (ligand)
chain: B1 chain with A30D, H32E
B27: hIL-15 V49R/H32G (ligand)
chain: B1 chain with A30D, H32G
B28: hIL-15 V49R/H32I (ligand)
chain: B1 chain with A30D, H32I
B29: hIL-15 V49R/H32K (ligand)
chain: B1 chain with A30D, H32K
B30: hIL-15 V49R/H32L (ligand)
chain: B1 chain with A30D, H32L
B31: hIL-15 V49R/H32M (ligand)
chain: B1 chain with A30D, H32M
B32: hIL-15 V49R/H32N (ligand)
chain: B1 chain with A30D, H32N
B33: hIL-15 V49R/H32P (ligand)
chain: B1 chain with A30D, H32P
B34: hIL-15 V49R/H32Q (ligand)
chain: B1 chain with A30D, H32Q
B35: hIL-15 V49R/H32R (ligand)
chain: B1 chain with A30D, H32R
B36: hIL-15 V49R/H32S (ligand)
chain: B1 chain with A30D, H32S
B37: hIL-15 V49R/H32T (ligand)
chain: B1 chain with A30D, H32T
B38: hIL-15 V49R/H32W (ligand)
chain: B1 chain with A30D, H32W
B39: hIL-15 V49R/K11F (ligand)
chain: B1 chain with K11F, A30D
B40: hIL-15 V49R/K11M (ligand)
chain: B1 chain with K11M, A30D
B41: hIL-15 V49R/N4F (ligand)
chain: B1 chain with N4F, A30D
B42: hIL-15 V49R/I68E (ligand)
chain: B1 chain with A30D, I68E
B43: hIL-15 V49R/I68G (ligand)
chain: B1 chain with A30D, I68G
B44: hIL-15 V49R/I68Q (ligand)
chain: B1 chain with A30D, I68Q
B45: hIL-15 V49R/I68W (ligand)
chain: B1 chain with A30D, I68W
B46: hIL-15 V49R/L69F (ligand)
chain: B1 chain with A30D, L69F
B47: hIL-15 V49R/L69H (ligand)
chain: B1 chain with A30D, L69H
B48: hIL-15 V49R/L69N (ligand)
chain: B1 chain with A30D, L69N
B49: hIL-15 V49R/L69Q (ligand)
chain: B1 chain with A30D, L69Q
B50: hIL-15 V49R/L69R (ligand)
chain: B1 chain with A30D, L69R
B51: hIL-15 V49R/L69Y (ligand)
chain: B1 chain with A30D, L69Y
B52: hIL-15 V49R/N4P (ligand)
chain: B1 chain with N4P, A30D
B53: hIL-15 V49R/N4R (ligand)
chain: B1 chain with N4R, A30D
B54: hIL-15 V49R/N4T (ligand)
chain: B1 chain with N4T, A30D
B55: hIL-15 V49R/S7P (ligand)
chain: B1 chain with S7P, A30D

Each binder was assayed against T1, human IL-2Rβ (assay: SPR, steady state).

Binder | Kd
B1 | 0.273 µM
B2 | 0.165 µM
B3 | 0.213 µM
B4 | 0.149 µM
B5 | 0.201 µM
B6 | 0.351 µM
B7 | 0.277 µM
B8 | 0.238 µM
B9 | 0.163 µM
B10 | 0.197 µM
B11 | 0.29 µM
B12 | 0.249 µM
B13 | 0.269 µM
B14 | 0.258 µM
B15 | 0.321 µM
B16 | 0.231 µM
B17 | > 0.5 µM
B18 | > 0.5 µM
B19 | 0.291 µM
B20 | > 1 µM
B21 | > 0.5 µM

Binder | Kd
B22 | > 0.5 µM
B23 | > 0.5 µM
B24 | 0.218 µM
B25 | 0.123 µM
B26 | 0.13 µM
B27 | 0.459 µM
B28 | 0.11 µM
B29 | 0.149 µM
B30 | 0.159 µM
B31 | 0.161 µM
B32 | 0.124 µM
B33 | 0.146 µM
B34 | 0.147 µM
B35 | 0.156 µM
B36 | 0.176 µM
B37 | 0.186 µM
B38 | 0.376 µM
B39 | 0.162 µM
B40 | 0.18 µM
B41 | 0.247 µM

The binders below were run against T2, human IL-15Rα (human, UniProt Q13261 31-205, limits assumed) (assay: SPR, steady state).
T2 construct: also called hIL-15Rα; IL-15 receptor alpha
T2 sequence (Q13261 31-205 limits assumed): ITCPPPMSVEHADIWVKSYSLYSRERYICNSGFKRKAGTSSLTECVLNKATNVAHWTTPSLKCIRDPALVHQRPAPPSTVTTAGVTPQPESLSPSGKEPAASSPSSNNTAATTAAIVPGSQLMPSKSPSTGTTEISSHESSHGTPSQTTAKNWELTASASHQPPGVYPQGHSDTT

Binder | Kd
B1 | 0.151 µM
B2 | 0.124 µM
B3 | 0.166 µM
B4 | 0.121 µM
B5 | 0.197 µM
B6 | 0.158 µM
B7 | 0.237 µM
B8 | 0.142 µM
B9 | 0.094 µM
B10 | 0.111 µM
B11 | 0.155 µM
B12 | 0.146 µM
B13 | 0.184 µM
B14 | 0.153 µM
B16 | 0.159 µM
B17 | 0.0782 µM
B18 | 0.13 µM
B19 | 0.108 µM
B20 | 0.112 µM
B21 | 0.115 µM
B22 | 0.127 µM
B23 | 0.141 µM
B24 | 0.152 µM
B25 | 0.0855 µM
B26 | 0.108 µM

Binder | Kd
B27 | 0.249 µM
B28 | 0.113 µM
B29 | 0.0928 µM
B30 | 0.189 µM
B31 | 0.134 µM
B32 | 0.0859 µM
B33 | 0.162 µM
B34 | 0.064 µM
B35 | ~0.131 µM
B36 | 0.11 µM
B42 | 0.122 µM
B43 | 0.101 µM
B44 | 0.132 µM
B45 | 0.0937 µM
B46 | 0.106 µM
B47 | 0.0545 µM
B48 | 0.044 µM
B49 | ~0.0433 µM
B50 | 0.111 µM
B51 | 0.137 µM
B52 | 0.356 µM
B53 | 0.0561 µM
B54 | ~0.0886 µM
B55 | > 0.5 µM

— patent US20210324028A1 (Pfizer, published 2021)
